According to patent US20250186580A1 (TRIDEM BIOSCIENCE, published 2025):

Target: Menveo, Neisseria meningitidis oligosaccharide (A, C, W135, Y) CRM197 conjugate vaccine, without β-glucan … (UniProt P00588 33-567)
Assay: competitive ELISA, soluble murine Fc-dectin-1a on coated glucan

B1: soluble murine Fc-dectin-1a receptor (InvivoGen) (Fc fusion)
chain: EYGHNSGRNPEEKDNFLSRNKENHKPTESSLDEKVAPSKASQTTGGFSQPCLPNWIMHGKSCYLFSFSGNSWYGSKRHCSQLGAHLLKIDNSKEFEFIESQTSSHRINAFWIGLSRNQSEGPWFWEDGSAFFPNSFQVRNTAPQESLLHNCVWIHGSEVYNQICNTSSYSICEKEL
- binding result: no binding
